Assay [1] addresses T1, GST-NΔ173 Tec (Homo sapiens, UniProt P42680).
T1 construct: made in house; host or cells: Tec: SF9 insect cells (baculovirus); FGF2: E. coli
Description: Steady-state fluorescence polarization, FGF2 binding to GST-NΔ173 Tec. To be noted: fluorescein-labeled FGF2 50 nM, 1:1 stoichiometry, ± SEM; read-out: dissociation constant FGF2 / GST-NΔ173 Tec. As to the method: (§1) (A) Fluorescence polarization experiments were conducted using fluorescein-labeled FGF2. FGF2 (at a constant concentration of 50 nM) was incubated with increasing concentrations (0 to 20 μM) of the various Tec constructs indicated. Following incubation for 3 hours at room temperature, changes in polarization (ΔPolarization in mP) were recorded. A non-linear regression analysis was conducted (GST-NΔ173 Tec: black circles, n=8; SH1 kinase domain: green squares, n=5; GST-PH-TH: blue triangles, n=3; GST-SH3-SH2: red triangles, n=3; GST: orange rhombuses, n=5) and standard errors of the mean (SEM) were calculated. As detailed in Experimental Procedures, assuming a binding stoichiometry of 1:1, dissociation constants were calculated to be 1.434 μM±0.55 (SEM) for GST-NΔ173 Tec and 1.032 μM±0.29 (SEM) for the SH1 kinase domain of Tec. FIG. 2A discloses “His6” as SEQ ID NO: 2.
(§2) To determine binding affinity between Tec kinase and FGF2, steady-state fluorescence polarization was used. […] Based on the extinction coefficients of both His-tagged FGF2 and fluroscein-5-maleimide, the degree of labeling was determined to be 30%. […] Absolute protein concentrations were determined based upon the extinction coefficients calculated for each protein and measuring absorption at 280 nm using a NanoDrop 1000 spectrophotometer. […]
Background: Polarisation of emitted light reports the rotation of a fluorescent probe.

In assay [2] the target is T2, SH1 kinase domain of Tec (Homo sapiens, UniProt P42680).
T2 construct: yielding a homogenous preparation of the SH1 kinase domain; His (N, cleaved yes); made in house; host or cells: Tec SH1: SF9 insect cells (baculovirus); FGF2: E. coli
Put plainly: Steady-state fluorescence polarization, FGF2 binding to SH1 kinase domain of Tec. To be noted: fluorescein-labeled FGF2 50 nM, 1:1 stoichiometry, ± SEM; read-out: dissociation constant FGF2 / SH1 kinase domain of Tec. As to the method: as §1, §2

T2 sequence (P42680 370-623 limits assumed): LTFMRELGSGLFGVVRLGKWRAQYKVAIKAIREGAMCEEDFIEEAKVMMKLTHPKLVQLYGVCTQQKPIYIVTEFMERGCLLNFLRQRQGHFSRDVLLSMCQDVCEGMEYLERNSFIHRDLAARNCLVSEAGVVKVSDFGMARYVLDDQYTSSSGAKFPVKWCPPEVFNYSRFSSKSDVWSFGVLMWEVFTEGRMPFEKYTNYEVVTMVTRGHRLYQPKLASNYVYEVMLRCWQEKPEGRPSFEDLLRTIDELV
T1 sequence (P42680 174-631, stated change not applied): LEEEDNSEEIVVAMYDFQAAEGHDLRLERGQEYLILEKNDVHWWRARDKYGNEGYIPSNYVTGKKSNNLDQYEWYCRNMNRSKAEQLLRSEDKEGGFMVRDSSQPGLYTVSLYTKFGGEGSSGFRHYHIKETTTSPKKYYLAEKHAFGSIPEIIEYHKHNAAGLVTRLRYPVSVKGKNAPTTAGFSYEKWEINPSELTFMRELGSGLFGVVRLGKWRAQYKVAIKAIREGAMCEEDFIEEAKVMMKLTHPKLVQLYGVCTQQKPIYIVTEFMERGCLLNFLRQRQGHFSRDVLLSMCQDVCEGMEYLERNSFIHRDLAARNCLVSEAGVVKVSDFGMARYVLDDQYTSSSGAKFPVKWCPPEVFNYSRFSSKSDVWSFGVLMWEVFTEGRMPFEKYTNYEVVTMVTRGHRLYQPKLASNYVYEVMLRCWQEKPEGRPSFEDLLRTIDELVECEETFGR

“FGF2: recombinant fibroblast growth factor 2, His-tagged and fluorescein-labeled for fluorescence polarization”: the Kd in assay [1] was 1430 nM; in assay [2] it was 1030 nM.

Source of the values: patent publication US10842793B2, “Inhibitors of the unconventional secretion of fibroblast growth factor 2 (FGF2) by tumor cells and uses thereof” (Universität Heidelberg, priority 2016, dated 2020).
